This is an account of results in article PMC3621463 (Nature Communications, 2012).

In the assay the target is HDM2 (used for surface plasmon resonance and the competitive binding assay) (UniProt Q00987 1-491). The assay can be described thus: SPR. On the technique in general: SPR reads the build-up and loss of mass on a sensor chip optically.
Sequence of HDM2 (used for surface plasmon resonance and the competitive binding assay) (Q00987 whole entry): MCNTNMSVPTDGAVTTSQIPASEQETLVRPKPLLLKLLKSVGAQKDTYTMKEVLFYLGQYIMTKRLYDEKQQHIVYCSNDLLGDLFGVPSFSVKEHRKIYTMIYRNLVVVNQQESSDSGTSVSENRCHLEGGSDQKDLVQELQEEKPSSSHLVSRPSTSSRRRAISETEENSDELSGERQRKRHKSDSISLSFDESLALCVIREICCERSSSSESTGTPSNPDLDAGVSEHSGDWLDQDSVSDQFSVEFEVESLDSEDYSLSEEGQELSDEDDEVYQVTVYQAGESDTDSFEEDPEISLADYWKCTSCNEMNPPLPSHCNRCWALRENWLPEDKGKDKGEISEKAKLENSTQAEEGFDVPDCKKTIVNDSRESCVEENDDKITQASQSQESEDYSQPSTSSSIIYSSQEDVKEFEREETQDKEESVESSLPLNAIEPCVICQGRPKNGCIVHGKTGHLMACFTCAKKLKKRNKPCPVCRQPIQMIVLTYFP

Take LWKLLPEDDVLSPLPSQAM (isoaspartate at 29 and 30) [p53 peptide (amino acids 22-40) N29,30IsoD]: the Kd (in general, the constant that tells how readily two partners part at equilibrium) amounted to 694 µM.
